In paper PMC4592949 (eLife, 2015):

T1: recombinant HERC2 2540-2700 (human, UniProt O95714 2540-2700)
T1 construct: HERC2, residues 2540-2700; source: E. coli, purified (Ni-IMAC, Senp1 cleavage, Q-sepharose, Superdex 75); not shown: His6-Sumo, N-terminal, cleaved
T1 sequence (looked up): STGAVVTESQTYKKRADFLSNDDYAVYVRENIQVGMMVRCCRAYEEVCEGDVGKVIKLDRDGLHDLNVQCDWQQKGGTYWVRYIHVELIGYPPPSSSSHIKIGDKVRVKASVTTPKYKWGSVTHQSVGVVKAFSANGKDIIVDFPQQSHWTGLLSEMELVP

B1: NCOA4 383-522-GST (domain or fragment, human, UniProt Q13772-1 383-522, looked up)
chain: SMVTEDWLVQNHQDPCKVEEVCRANEPCTSFAECVCDENCEKEALYKWLLKKEGKDKNGMPVEPKPEPEKHKDSLNMWLCPRKEVIEQTKAPKAMTPSRIADSFQVIKNSPLSEWLIRPPYKEGSPKEVPGTEDRAGKQK
notes: also called NCOA4-GST; source: E. coli BL21 (DE3) Rosetta, purified (Ni-IMAC, glutathione Sepharose, Senp1 cleavage); not shown: His6-Sumo, N-terminal, cleaved; GST, C-terminal, kept

Legend:
Details in all cases: both partners purified
[1] = molecular target: T2, recombinant FTH1-only ferritin complex, wild type (human, UniProt P02794 2-183); assay: pull-down; NCOA4 383-522-GST on glutathione Sepharose 4B, mixed with 50 μg recombinant FTH1-only or FTL-only complexes; 30 min at 4°C; 150 mM NaCl, 20 mM Tris pH 7.4, 2 mM DTT, 0.5% Nonidet P-40; Coomassie stain
T2 construct: Purified as 450 kDa complexes; also called FTH1^WT; FTH1-only complexes; source: E. coli, purified (Ni-IMAC, Senp1 cleavage, Q-sepharose, Superose 6 gel filtration); not shown: His6-Sumo, N-terminal, cleaved; copies: 24

[2] = molecular target: T3, apoferritin purified from horse spleen (containing both FTH1 and FTL) (horse, UniProt Q8MIP0 1-182; P02791 1-175); assay: pull-down; NCOA4-GST fragments on glutathione Sepharose 4B, mixed with 50 μg apoferritin from equine spleen; 30 min at 4°C; 150 mM NaCl, 20 mM Tris pH 7.4, 2 mM DTT, 0.5% Nonidet P-40; SDS-PAGE and Coomassie stain
T3 construct: ferritin heavy chain (FTH1), horse, from spleen apoferritin; ferritin light chain (FTL), horse, from spleen apoferritin; Ferritin is a complex of 24 subunits, a mixture of heavy and light chains; also called horse spleen apoferritin; apoferritin purified from equine spleen; source: bought: Sigma A3641, apoferritin purified from equine spleen

[3] = molecular target: T1, recombinant HERC2 2540-2700; assay: pull-down; NCOA4-GST fragments on glutathione Sepharose 4B (in one panel pre-treated with DFO), mixed with 50 μg recombinant HERC2 fragments; 30 min at 4°C; 150 mM NaCl, 20 mM Tris pH 7.4, 2 mM DTT, 0.5% Nonidet P-40; Coomassie stain
NCOA4 383-522-GST = molecular target: B1; assay: as above

T3 sequence (Q8MIP0 whole entry, chain 1 of 2, the tested form may be a part): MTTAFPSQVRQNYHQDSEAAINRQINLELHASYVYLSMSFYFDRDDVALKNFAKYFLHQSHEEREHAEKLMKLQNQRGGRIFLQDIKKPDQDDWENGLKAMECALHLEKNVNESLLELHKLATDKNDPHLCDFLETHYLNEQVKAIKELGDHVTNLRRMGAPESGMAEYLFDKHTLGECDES
T3 sequence (P02791 whole entry, chain 2 of 2, the tested form may be a part): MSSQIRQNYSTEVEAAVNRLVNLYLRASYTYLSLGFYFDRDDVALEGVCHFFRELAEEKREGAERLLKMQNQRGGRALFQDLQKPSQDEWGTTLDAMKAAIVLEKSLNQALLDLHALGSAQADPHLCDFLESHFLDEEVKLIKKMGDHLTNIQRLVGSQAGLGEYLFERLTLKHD
T2 sequence (P02794 2-183, one chain of several): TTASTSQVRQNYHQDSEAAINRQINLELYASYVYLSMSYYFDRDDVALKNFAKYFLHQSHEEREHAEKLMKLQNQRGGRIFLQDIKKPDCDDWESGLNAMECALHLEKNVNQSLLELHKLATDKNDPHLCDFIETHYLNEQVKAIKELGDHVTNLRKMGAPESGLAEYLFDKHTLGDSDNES

Binder	binding result [1]	binding result [2]	binding result [3]	binding result (NCOA4 383-522-GST)
B1	binds	binds	binds	–
recombinant HERC2 CUL7 domain (amino acids 2553-2639) (domain or fragment, also called minimal CUL7 domain; source: E. coli, purified (Ni-IMAC, Senp1 cleavage, Q-sepharose, Superdex 75); not shown: His6-Sumo, N-terminal, cleaved) not shown	–	–	–	binds
KAMTPSRIADSFQVIKNSPLSEWLIRPPYKEGSPKEVPGTEDRAGKQK (domain or fragment, human, UniProt Q13772-1 475-522, looked up, source: E. coli BL21 (DE3) Rosetta, purified (Ni-IMAC, glutathione Sepharose, Senp1 cleavage); not shown: His6-Sumo, N-terminal, cleaved; GST, C-terminal, kept) [NCOA4 475-522-GST]	–	binds	–	–
